Measurements: US20220340655A1 (OPSIDIO, published 2022)

Target: human stem cell factor isoform SCF248 (human, UniProt P21583 26-273)
Experiment: flow cytometry on S1/S14 hSCF248 cells; printed as BC50 (50% maximal binding)

Chain of human stem cell factor isoform SCF248 (P21583 26-189): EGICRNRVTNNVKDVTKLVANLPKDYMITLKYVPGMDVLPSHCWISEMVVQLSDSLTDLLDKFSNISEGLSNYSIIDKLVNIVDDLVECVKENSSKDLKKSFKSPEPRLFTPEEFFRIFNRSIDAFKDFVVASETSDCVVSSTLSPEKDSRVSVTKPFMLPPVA

B1: 5H10 VH3/VK3 (antibody, human IgG4, V domains shown)
VH: QVQLVQSGAEVKKPGSSVKVSCKSSGYAFSSYWMNWVRQRPGQGLEWIGQIYPGDGDTHYNGKFKGKATLTADKSTSTAYMELSSLRSEDTAVYFCSSSNWVGSYWGQGTLVTVSS
VL: DVVMTQSPLSLPVTLGQPASISCKSSQSLLESDGKTYLNWLQQRPGQSPRRLIYLVSRLDSGVPDRFSGSGSGTDFTLKISRVEAEDVGVYYCWQGTHLPQTFGGGTKVEIK
notes: Humanized; only variable regions are tied to the name
Question: For B1, which EC50 is on record?
Answer: 0.9 µg/mL
